Data: PMC3143072, “DNA binding activities of the Herves transposase from the mosquito Anopheles gambiae”

What was measured:
Herves transposase [1] = molecular target: T1, Herves transposase (Anopheles gambiae, UniProt Q5QIT5 1-603); experiment: EMSA; two complexes; EMSA: 16 mM Tris pH 8.0, 150 mM NaCl, 1 mM DTT, 0.25% Triton X, 0.2 ug BSA, 0.4 ug T3 ss oligo, 0.5 ug poly(dI-dC), 4 C; 100 nM DNA, 850 nM transposase; same binding conditions for DNase I; details: protein: recombinant; tags: His tag (pBAD myc/HisA vector); label: 32P as probe
T1 sequence: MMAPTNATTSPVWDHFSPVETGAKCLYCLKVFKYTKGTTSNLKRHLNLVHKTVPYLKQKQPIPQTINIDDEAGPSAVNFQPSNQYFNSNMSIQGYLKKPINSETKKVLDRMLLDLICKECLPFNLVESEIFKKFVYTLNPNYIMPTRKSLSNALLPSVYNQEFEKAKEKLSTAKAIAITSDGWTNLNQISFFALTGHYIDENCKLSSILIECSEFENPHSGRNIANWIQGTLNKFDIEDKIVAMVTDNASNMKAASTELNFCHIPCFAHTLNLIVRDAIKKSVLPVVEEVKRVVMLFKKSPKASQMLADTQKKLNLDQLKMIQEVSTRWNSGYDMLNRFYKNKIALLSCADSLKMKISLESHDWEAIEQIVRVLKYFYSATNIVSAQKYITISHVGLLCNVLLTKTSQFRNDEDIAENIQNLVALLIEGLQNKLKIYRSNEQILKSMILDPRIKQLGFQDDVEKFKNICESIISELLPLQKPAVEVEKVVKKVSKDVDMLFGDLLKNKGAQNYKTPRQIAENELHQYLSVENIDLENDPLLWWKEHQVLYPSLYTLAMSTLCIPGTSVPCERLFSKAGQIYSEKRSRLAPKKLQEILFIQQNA

Herves transposase [2] = molecular target: T1, Herves transposase; experiment: competition; vs Herves-L 1-100 probe, partial compared with bp 1-100; 200-fold; EMSA: 16 mM Tris pH 8.0, 150 mM NaCl, 1 mM DTT, 0.25% Triton X, 0.2 ug BSA, 0.4 ug T3 ss oligo, 0.5 ug poly(dI-dC), 4 C; 100 nM DNA, 850 nM transposase; same binding conditions for DNase I; details: protein: recombinant; tags: His tag (pBAD myc/HisA vector); label: 32P as probe
Herves transposase [3] = molecular target: T1, Herves transposase; experiment: EMSA; three complexes; competed by unlabeled bp 1-100; EMSA: 16 mM Tris pH 8.0, 150 mM NaCl, 1 mM DTT, 0.25% Triton X, 0.2 ug BSA, 0.4 ug T3 ss oligo, 0.5 ug poly(dI-dC), 4 C; 100 nM DNA, 850 nM transposase; same binding conditions for DNase I; details: protein: recombinant; tags: His tag (pBAD myc/HisA vector); label: 32P
Herves transposase [4] = molecular target: T1, Herves transposase; experiment: EMSA; one complex; EMSA: 16 mM Tris pH 8.0, 150 mM NaCl, 1 mM DTT, 0.25% Triton X, 0.2 ug BSA, 0.4 ug T3 ss oligo, 0.5 ug poly(dI-dC), 4 C; 100 nM DNA, 850 nM transposase; same binding conditions for DNase I; details: protein: recombinant; tags: His tag (pBAD myc/HisA vector); label: 32P as probe
Herves transposase [5] = molecular target: T1, Herves transposase; experiment: competition; vs Herves-L 1-100 probe; 200-fold; EMSA: 16 mM Tris pH 8.0, 150 mM NaCl, 1 mM DTT, 0.25% Triton X, 0.2 ug BSA, 0.4 ug T3 ss oligo, 0.5 ug poly(dI-dC), 4 C; 100 nM DNA, 850 nM transposase; same binding conditions for DNase I; details: protein: recombinant; tags: His tag (pBAD myc/HisA vector)
Herves transposase [6] = molecular target: T1, Herves transposase; experiment: EMSA; EMSA: 16 mM Tris pH 8.0, 150 mM NaCl, 1 mM DTT, 0.25% Triton X, 0.2 ug BSA, 0.4 ug T3 ss oligo, 0.5 ug poly(dI-dC), 4 C; 100 nM DNA, 850 nM transposase; same binding conditions for DNase I; details: protein: recombinant; tags: His tag (pBAD myc/HisA vector); label: 32P as probe
Herves transposase [7] = molecular target: T1, Herves transposase; experiment: EMSA; two complexes; competed by self; EMSA: 16 mM Tris pH 8.0, 150 mM NaCl, 1 mM DTT, 0.25% Triton X, 0.2 ug BSA, 0.4 ug T3 ss oligo, 0.5 ug poly(dI-dC), 4 C; 100 nM DNA, 850 nM transposase; same binding conditions for DNase I; details: protein: recombinant; tags: His tag (pBAD myc/HisA vector); label: 32P

B1: (CGATTCAT)4 (dsDNA)
DNA 1: CGATTCATCGATTCATCGATTCATCGATTCAT
DNA 2: ATGAATCGATGAATCGATGAATCGATGAATCG
binding result (Herves transposase [1]): binds

B2: Herves-L bp 28-60 (dsDNA)
DNA 1: GTACGATTCATTCAATTCATCCTAAAGAACGAA
DNA 2: TTCGTTCTTTAGGATGAATTGAATGAATCGTAC
binding result (Herves transposase [2]): binds

B3: Herves-L bp 1-100 (dsDNA)
DNA 1: TAGAGTTGTGCCTCAAGAACCAGAACTGTACGATTCATTCAATTCATCCTAAAGAACGAATGACCTACGTTCATCTAATCAACGTTCATCGATTCTTTAT
DNA 2: ATAAAGAATCGATGAACGTTGATTAGATGAACGTAGGTCATTCGTTCTTTAGGATGAATTGAATGAATCGTACAGTTCTGGTTCTTGAGGCACAACTCTA
binding result (Herves transposase [3]): binds

B4: Herves-R bp 15-45 (dsDNA)
DNA 1: TCGATTCATTACCATGAACGTGAATTTACCG
DNA 2: CGGTAAATTCACGTTCATGGTAATGAATCGA
binding result (Herves transposase [4]): binds

B5: Herves-L bp 1-30 (dsDNA)
DNA 1: TAGAGTTGTGCCTCAAGAACCAGAACTGTA
DNA 2: TACAGTTCTGGTTCTTGAGGCACAACTCTA
binding result (Herves transposase [5]): no binding

B6: Herves-L bp 12-48 (dsDNA)
DNA 1: CTCAAGAACCAGAACTGTACGATTCATTCAATTCATC
DNA 2: GATGAATTGAATGAATCGTACAGTTCTGGTTCTTGAG
binding result (Herves transposase [1]): binds

B7: Herves-R bp 46-75 (dsDNA)
DNA 1: GTTCTTTCATTAACATGAACTGAGCGTGAA
DNA 2: TTCACGCTCAGTTCATGTTAATGAAAGAAC
binding result (Herves transposase [6]): no binding

B8: Herves-R bp 1-30 (dsDNA)
DNA 1: TAGGGTTGGGCAATTCGATTCATTACCATG
DNA 2: CATGGTAATGAATCGAATTGCCCAACCCTA
binding result (Herves transposase [1]): binds

B9: Herves-R bp 1-100 (dsDNA)
DNA 1: TTGACGTGAACGATTGAATCGCGATTCACGCTCAGTTCATGTTAATGAAAGAACCGGTAAATTCACGTTCATGGTAATGAATCGAATTGCCCAACCCTA
DNA 2: TAGGGTTGGGCAATTCGATTCATTACCATGAACGTGAATTTACCGGTTCTTTCATTAACATGAACTGAGCGTGAATCGCGATTCAATCGTTCACGTCAA
binding result (Herves transposase [7]): binds

B10: Herves-R bp 61-90 (dsDNA)
DNA 1: TGAACTGAGCGTGAATCGCGATTCAATCGT
DNA 2: ACGATTGAATCGCGATTCACGCTCAGTTCA
binding result (Herves transposase [4]): binds
